What is called Kd is the constant that tells how readily two partners part at equilibrium. A word on the IC50: it is the concentration at which inhibition is half-maximal. High values mean lower potency, low ones higher potency.

In the Immune Epitope Database (IEDB) one finds Kd and IC50 data, which are given here for 19 sequences.

The target of assay [1] is HLA-C*14:02. The assay is described as follows: IEDB peptide-MHC binding, purified MHC/direct/fluorescence; filed as Kd, often an IC50 or EC50 that approximates it; ≥ and ≤ were set here for values at or beyond the usual limits of such assays.
Assay [2] deals with HLA-B*07:02. The assay is described as follows: IEDB peptide-MHC binding, purified MHC/competitive/fluorescence; filed as Kd, often an IC50 or EC50 that approximates it; ≥ and ≤ were set here for values at or beyond the usual limits of such assays. The settings on record: source organism: Yersinia pestis Antiqua.
In assay [3] the target is HLA-A*01:01. The assay is described as follows: IEDB peptide-MHC binding, purified MHC/competitive/fluorescence; ≥ and ≤ were set here for values at or beyond the usual limits of such assays.
Assay [4] deals with HLA-A*02:01. The assay is described as above.
Assay [5] addresses HLA-B*15:01. Described as above.
Assay [6] has as its target HLA-B*07:02. The assay is described as above.
Assay [7] concerns the target HLA-A*02:03. The assay is described as follows: IEDB peptide-MHC binding, purified MHC/direct/fluorescence; filed as Kd, often an IC50 or EC50 that approximates it; ≥ and ≤ were set here for values at or beyond the usual limits of such assays.
Assay [8] has as its target HLA-A*02:11. The assay is described as above.
The target in assay [9] is HLA-A*02:12. Described as above.
Assay [10] deals with HLA-A*02:16. The assay is described as above.
Assay [11] addresses HLA-A*02:19. Described as above.
Assay [12] concerns the target HLA-A*03:01. The description is as above.
The target of assay [13] is HLA-A*23:01. The assay is described as above.
In assay [14] the target is HLA-A*24:03. The description is as above.
In assay [15] the target is HLA-A*29:02. Described as above.
Assay [16] has as its target HLA-A*68:02. The description is as above.
In assay [17] the target is HLA-A*02:01. The assay is described as follows: IEDB peptide-MHC binding, purified MHC/competitive/fluorescence; filed as Kd, often an IC50 or EC50 that approximates it; ≥ and ≤ were set here for values at or beyond the usual limits of such assays.
Assay [18] deals with HLA-A*26:01. The description is as above. As to conditions: source organism: Orthohantavirus dobravaense.
Assay [19] concerns the target HLA-A*69:01. The assay is described as above.
For assay [20], the target named is HLA-B*15:01. Described as above.
For assay [21], the target named is HLA-B*15:17. The assay is described as above.
The target of assay [22] is HLA-B*18:01. The description is as above.
Assay [23] addresses HLA-B*27:05. The assay is described as above. The settings on record: source organism: Orthohantavirus dobravaense.
In assay [24] the target is HLA-B*39:01. The assay is described as above.
For assay [25], the target named is HLA-B*46:01. Described as above.
The target in assay [26] is HLA-B*51:01. The description is as above.
Assay [27] has as its target HLA-B*57:01. The description is as above.
Assay [28] concerns the target HLA-A*26:01. The experiment in a line: IEDB peptide-MHC binding, purified MHC/direct/fluorescence; filed as Kd, often an IC50 or EC50 that approximates it; ≥ and ≤ were set here for values at or beyond the usual limits of such assays. The settings on record: source organism: Zaire ebolavirus.
Assay [29] addresses HLA-B*27:03. The experiment in a line: IEDB peptide-MHC binding, purified MHC/competitive/fluorescence; filed as Kd, often an IC50 or EC50 that approximates it; ≥ and ≤ were set here for values at or beyond the usual limits of such assays. The settings on record: source organism: Zaire ebolavirus.
Assay [30] deals with HLA-A*24:02. Described as above.
For assay [31], the target named is HLA-B*18:01. The experiment in a line: IEDB peptide-MHC binding, purified MHC/direct/fluorescence; filed as Kd, often an IC50 or EC50 that approximates it; ≥ and ≤ were set here for values at or beyond the usual limits of such assays. As to conditions: source organism: Alto Paraguay hantavirus.
The target in assay [32] is HLA-B*40:01. Described as above. As to conditions: source organism: Alto Paraguay hantavirus.
The target in assay [33] is HLA-A*03:01. The experiment in a line: IEDB peptide-MHC binding, purified MHC/competitive/fluorescence; ≥ and ≤ were set here for values at or beyond the usual limits of such assays. As to conditions: source organism: Sudan ebolavirus.
The target in assay [34] is HLA-A*11:01. The assay is described as above. The settings on record: source organism: Sudan ebolavirus.
The target of assay [35] is HLA-A*24:02. The description is as above.
The target in assay [36] is HLA-B*08:01. Described as above.
[37] abbreviates: source organism: Zaire ebolavirus.
Where [38] appears, read: source organism: Orthohantavirus sangassouense.
[39] abbreviates: source organism: Orthohantavirus dobravaense.
Setting [40] is: source organism: Vaccinia virus Copenhagen.
The mark [41] stands for this setting: source organism: Vaccinia virus.
Where [42] appears, read: source organism: Vaccinia virus WR.

Regarding APPPQRAAM, the Kd in assay [1] (source organism: Mycobacterium tuberculosis variant bovis BCG str. Pasteur 1173P2) turned out to be 0.061 µM.

Take AKRYEKSAM: the equilibrium dissociation constant (Kd) was 1.05 µM in assay [1] (source organism: Yersinia pestis Antiqua) and at least 20 µM in assay [2].

Consider ASENSSAMV, for which the IC50 in assay [3] (setting [37]) is 43.5 µM; in [4] (setting [37]) it was at least 147 µM.

Turning to YQSYSENGM, the half-inhibitory concentration (IC50) in assay [4] (setting [37]) turned out to be 27.9 µM; in assay [5] (setting [37]), 16.7 µM.

Consider VPSATKRWG, for which, in assay [6] (setting [37]), the IC50 was 64.6 µM.

In the case of MRNTIMASK, the dissociation constant (Kd) in assay [7] (setting [38]), in [8] (setting [38]), in [9] (setting [38]), in [10] (setting [38]), in assay [11] (setting [38]) and in assay [12] (setting [38]) was at least 20 µM throughout. Further, the Kd in assay [13] (setting [38]), in [14] (setting [38]), in assay [15] (setting [38]), in [16] (setting [38]), in assay [17] (setting [39]) and in assay [18] was at least 20 µM throughout. Further, the equilibrium dissociation constant (Kd) is at least 20 µM in assay [19] (setting [39]); at least 20 µM in assay [20] (setting [39]); at least 20 µM in assay [21] (setting [39]); at least 20 µM in assay [22] (setting [39]); 0.144 µM in [23]; at least 20 µM in assay [24] (setting [39]). For the same sequence, the Kd in assay [25] (setting [39]), in [26] (setting [39]) and in [27] (setting [39]) was at least 20 µM each time.

The sequence EAEKQLQQY had an IC50 in assay [3] (setting [37]) of 18.1 µM. Besides, the Kd in assay [7] (setting [37]), in assay [8] (setting [37]), in [9] (setting [37]), in [10] (setting [37]), in assay [11] (setting [37]) and in assay [12] (setting [37]) was at least 20 µM throughout. In addition, the equilibrium dissociation constant (Kd) is at least 20 µM in [13] (setting [37]); at least 20 µM in assay [14] (setting [37]); 2.24 µM in assay [28]; at least 20 µM in assay [15] (setting [37]); at least 20 µM in [16] (setting [37]); at least 20 µM in assay [17] (setting [37]). Further, the Kd in assay [19] (setting [37]), in assay [20] (setting [37]), in assay [21] (setting [37]), in assay [22] (setting [37]), in assay [29] and in assay [24] (setting [37]) was at least 20 µM each time. Besides, the Kd in assay [25] (setting [37]), in assay [26] (setting [37]) and in [27] (setting [37]) was at least 20 µM each time.

As for ITPKTHFLF, in [30] (source organism: Giardia intestinalis ATCC 50581), the equilibrium dissociation constant (Kd) is 0.0002 µM.

In the case of KEISNQEPL, the Kd amounted to 0.357 µM in [31], 0.0032 µM in assay [32] and 2.07 µM in assay [1] (setting [39]).

With VSHLTTLAT, the 50% inhibitory concentration (IC50) in assay [4] (setting [37]) is at least 719 µM; in assay [5] (setting [37]), 28.7 µM.

Take IPNSLHSLS: in [6] (setting [40]), the 50% inhibitory concentration (IC50) was at least 136 µM.

In the case of SFERFEIF, the Kd in [30] (source organism: Influenza A virus (A/Harbin/1/1988(H1N2))) came out at 0.237 µM.

Consider STDIPSATK, for which the IC50 was at least 76.4 µM in assay [3] (source organism: Sudan ebolavirus), 65.6 µM in assay [33] and 1.47 µM in assay [34].

Consider AQPKCNPNL, for which the IC50 was 47.6 µM in [4] (setting [37]), 12.1 µM in assay [35] (setting [37]), at least 121 µM in [6] (setting [37]) and at least 93.5 µM in [5] (setting [37]).

As to IDILRSLET, the values for the IC50 in assay [4] (setting [41]) and in [36] (setting [41]) were 44.3 µM and at least 514 µM, respectively.

Regarding IWGGTSFLF, the dissociation constant (Kd) in assay [30] (source organism: Salmonella enterica subsp. enterica serovar Typhi) is at most 0.0001 µM.

Regarding KHHTKIDSM, the figures for the IC50 in [35] (source organism: Variola virus) and in assay [36] (source organism: Variola virus) were 1.69 µM and at least 209 µM, respectively.

FGLYKSINV: the IC50 in assay [4] (setting [42]) turned out to be 0.744 µM; in assay [36] (setting [42]), 37 µM.

As for RQLAKAIIT, the half-inhibitory concentration (IC50) in assay [5] (setting [40]) is 40.8 µM. This lies in the double-digit micromolar range.
